# Test results: paper PMC4240464
# B1: CCL1 (ligand)
# chain: KSMQVPFSRCCFSFAEQEIPLRAILCYRNTSSICSNEGLIFKLKRGKEACALDTVGWVQRHRKMLRHCPSKRK
# B2: CCL23 (ligand)
# chain: RVTKDAETEFMMSKLPLENPVLLDRFHATSADCCISYTPRSIPCSLLESYFETNSECSKPGVIFLTKKGRRFCANPSDKQVQVCMRMLKLDTRIKTRKN
# B3: CCL24 (ligand)
# chain: VVIPSPCCMFFVSKRIPENRVVSYQLSSRSTCLKAGVIFTTKKGQQFCGDPKQEWVQRYMKNLDAKQKKASPRARAVAVKGPVQRYPGNQTTC
# B4: CCL18 (ligand)
# chain: AQVGTNKELCCLVYTSWQIPQKFIVDYSETSPQCPKPGVILLTKRGRQICADPNKKWVQKYISDLKLNA
# B5: CCL15 (ligand)
# chain: QFTNDAETELMMSKLPLENPVVLNSFHFAADCCTSYISQSIPCSLMKSYFETSSECSKPGVIFLTKKGRQVCAKPSGPGVQDCMKKLKPYSI
# Target: Evasin-4–Fc (Rhipicephalus sanguineus)
# Experiment: SPR
row,Binder,Kd
1,B1,0.097 nM
2,B2,0.232 nM
3,B3,708 nM
4,B4,3.63 nM
5,B5,0.016 nM

# Target: Fc–Evasin-4 (Rhipicephalus sanguineus)
# Experiment: SPR
row,Binder,Kd
1,B1,0.276 nM
2,B2,0.124 nM
3,B3,4.84 nM
4,B4,0.083 nM
5,B5,0.04 nM
